Biological target: Smad3
Assay: cell-based or functional assay

activation of the collagen 1α2 proximal promoter (luciferase assay, NIH 3T3 fibroblasts co-transfected with Scx and Smad3): 35 % increase
Substance: scleraxis (mouse Scx expressed from pECE-HA-FLAG-Scx) (from UniProt Q64124 1-207)
